Results on one substance are retold here after US20230212320A1.

For assay [1], the target named is Fc2 of PTC039 (IgG1 Fc chain with L351G, T366S, L368A, Y407V) (Homo sapiens (Human)) [IgG part: P0DOX5]. Nature of the assay: SE-HPLC, PTC040 co-expression.
The target is the same in assay [2]. Nature of the assay: SE-HPLC, PTC074 co-expression.

Regarding “Fc2 of PTC039 (IgG1 Fc chain with L351G, T366S, L368A, Y407V) (from UniProt P0DOX5 218-449)”, the values for the Fc-2-2 homo-dimer (%) in assay [1] and in assay [2] were 1.5% and 0.96%, respectively.
